Experiment: yeast display, Sf9 membrane polyspecificity reagent, FACS + sequencing; frameworks hold sequencing errors
Method in brief: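 Nanobodies from a synthetic yeast display library (Saccharomyces cerevisiae BJ5465), induced 36–48 hours with galactose, were stained 1 hour at 4 °C with 10% biotinylated, detergent-solubilized Sf9 membrane reagent, enriched on streptavidin microbeads, then FACS-sorted. Anti-HA (expression) and streptavidin (reagent binding) fluorescence set low and high (top ~1%) gates. Polyreactivity labels come from the gate of origin. Genes were colony-PCR amplified, MiSeq 2 × 250 sequenced and filtered by CDR length.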

QVQLVESGGGLVQAGGSLRLSCAASGSTSQPYAMGWYRQAPGKERELVASITNGGITYYADSVKGRFTISRDNAKNTVYLQMNSLKPEDTAVYYCNADNVFEGYDRRSARASYRYYYWGQGTQVTVSS
polyreactivity (PSR sort gate): low polyreactivity

QVQLVESGGGLVQAGGSLRLSCAASGSTSQSNAMGRYRQAPGKERELVAAISWSGTSTYYADSVKGRFTISRDNAKNTVYLQMNSLKPEDTAVYYCAADYIFDYDYWGQGTQVTVSS
polyreactivity (PSR sort gate): low polyreactivity

QVQLVESGGGLVQAGGSLRLSCAASGSTSRKYTMGWYRQAPGKERELVATISWSGGSTYYADSVKGRFTISRDNAKNTVYLQMNSLKPEDTAVYYCAAATKVRNLGSFESPGPEVDYWGQGTQVTVSS
polyreactivity (PSR sort gate): high polyreactivity

QVQLVESGGGLVQAGGSLRLSCAASGSTSRTYAMGWYRQAPGQEMELVAAISSSGGRTYYADSVKGRFTISRDTAKNTVYLEMNSLKPEDTAVYYCNARTYSYRGYNYWGQGTQVTVSS
polyreactivity (PSR sort gate): high polyreactivity

QVQLVESGGGLVQAGGSLRLSCAASGSTSRYAMGWYRQAPGKERELVAAITRSGGTTYYADSVKGRYTISRDNAKNTVYLQMNSLKPEDTAVYYCATSDRQVKYDYWGQGTQVTVSS
polyreactivity (PSR sort gate): low polyreactivity

QVQLVESGGGLVQAGGSLRLSCAASGSTSSNNAMGWYRQAPGKEREFVADISSRGGSTYYADSVKGRFTISRDNAKNTVYLQMNSLKPEDTAVYYCARTRFWLRYRLFDYWGQGTHVTVSS
polyreactivity (PSR sort gate): low polyreactivity

QVQLVESGGGLVQAGGSLRLSCAASGSTSSVYAIGWYRQAPGKEREFVASITRRTGITFYADSVKGRFTISRDHAKNTVYLQMNSLKPEDTAVYYCAADFSGSVDYWGQGTQVTVSS
polyreactivity (PSR sort gate): high polyreactivity

QVQLVESGGGLVQAGGSLRLSCAASGSTSTTYTMGWYRQAPGKERELVAAISYSGGSTYYADSVKGRFTISRDNAKHTVYLQMNSLKPEDTAVYYCAAQSFVGWREYESWGQGTQVTVSS
polyreactivity (PSR sort gate): high polyreactivity

QVQLVESGGGLVQAGGSLRLSCAASGSTSTYYAMGWYRQAPGKERELVAAITLGAGRTYADSVKGRFTISRDNAKNTVYLQMNSLKPEDTAVYYCAADSHIDHGKWAYDYWGQGTQVTVSS
polyreactivity (PSR sort gate): low polyreactivity

QVQLVESGGGLVQAGGSLRLSCAASGSTSVINAMGGNRQAPGKERELVAGISGSGGSTYYADSVKGRFTISRDNAKNTVYLLMNSLKPEDTAVYYCAKRFYRPVPGGYYWGQGTQVTVSS
polyreactivity (PSR sort gate): high polyreactivity

QVQLVESGGGLVQAGGSLRLSCAASGSTSVVNAMGWYRQAPGKERELVAAISTGGASTYYADSVKGRFTISRDNAKNTVYLQMNSLNPEDTAVYYCAADLGYEYDYWGQGTQVTVSS
polyreactivity (PSR sort gate): high polyreactivity

QVQLVESGGGLVQAGGSLRLSCAASGSTSVYYAMGWYRQTPGKERELVAAINWNGGRTYYADSVKGRFTISRDNAKNTVYLQMNSLKPEDTAVYYCATDSGDGEGDYWGQGTQVTVSS
polyreactivity (PSR sort gate): low polyreactivity

QVQLVESGGGLVQAGGSLRLSCAASGSTSWRNTMGWYRQAPGKERELVAAIRNVGSTYYADSVKGLFTISRDNAKNTVYLQMNSLKPEDTAVYYCNARWRFLYDYWGQGTQVTVSS
polyreactivity (PSR sort gate): high polyreactivity

QVQLVESGGGLVQAGGSLRLSCAASGSTSYRYAMGWYRQAPGKQRELVAGITRSGGSTYYADSVKGRFTMSRDNAKNSVYLQMNSLKPEDTAVYYCAAYYSRQYVGYGYWGQGTQVTVSS
polyreactivity (PSR sort gate): high polyreactivity

QVQLVESGGGLVQAGGSLRLSCAASGSTSYWYAMGWYRQAPGKERELVAAISSDDSTNYADSVKGRFTISRDNAKNTVYLQMNSLKPEDTAVYYFNREHYLIRYDYWGQGTQVTVSS
polyreactivity (PSR sort gate): low polyreactivity

QVQLVESGGGLVQAGGSLRLSCAASGSTTYYAMGWYRQAPGKERELVAAISYSGGSTFYADSVKGRFRISRDNAKNTVYLQMNSLKPEDTAVYYCAADLGFPFDYWGQGTKVTVSS
polyreactivity (PSR sort gate): low polyreactivity

QVQLVESGGGLVQAGGSLRLSCAASGSTVESNVMGWYRQAPGKERELVAAISYSGGSTYIADSVKGRFTISRDNAKNTVYLQLNSLNPEDTAVLYSNALTSGYLYTFHRLWYPMYYWGQGTQGTVSS
polyreactivity (PSR sort gate): high polyreactivity

Source: the nanobody polyreactivity screen of Harvey et al. (2022)
